# Test results taken from patent publication US20240115706A1.
# Numbering of substitutions follows the chain as printed.
# B1: scFv C02 (scFv)
# scFv: QVQLVQSGAEVKKPGSSVKVSCKASGGTFSSYTISWVRQAPGQGLEWMGRIIPILGIANYAQKFQGRVTITADKSTSTAYMELSSLRSEDTAVYYCARDRSYNWLDPWGRGTLVTVSSGGGGSGGGGSGGGASQSALTQPVSVSGSPGQSITISCTGTISDVGDYNYVSWYQQHPGKAPKLMIYDVNNRPSGVSNRFSGSKSGNTASLTISGLQAEDEADYYCSSYTSSSTLVFGGGTKLTVL
# B2: scFv A03 (scFv)
# scFv: QVQLVQSGAEVKKPGSSVKVSCKASGGTFSSYTISWVRQAPGQELEWMGRIIPILGIANYAQKFQGRVTITADKSTSTAYMELSSLRSEDTAVYYCARDYSSSWNSMDVWGQGTLVTVSSGGGGSGGGGSGGGASQSGLTQPPSASGSPGQSVTISCTGTSSDIGYYHYVSWYQQHPGKAPKLMIYEDSKRPSGISNRFSGSKSGTTASLTVSGLQAEDEAHYYCSSFTSRSTWVFGGGTQLTVL
# B3: scFv A04 (scFv)
# scFv: EVQLVQPGAEVKKPGSSVKVSCKASGGTLSSYAISWVRQAPGQGLEWMGRIIPILGITNYAQKFQGRVTITADKSTSTAYMELSSLRSEDTAVYFCARDQRPASMDVWGQGTLVTVSSGGGGSGGGGSGGGASQSELTQPASVSGSPGQSITISCTGTSSDVGGYIYVSWYQQHPGKVPKLMIHDVSHRPSGVSNRFSGSRSGNTASLTISGLQAEDEADYFCSSYTSSNNYYFGTGTKVTVL
# B4: scFv A05 (scFv)
# scFv: QVQLVQSGAEVKKPGSSVKVSCKASGGTFSSYTITWVRQAPGQGLEWMGRIIPVLGIANYAQKFQGRVTITADKSTSTAYMELSSLRSEDTAVYYCARDYSSSWNSMDVWGQGTLVTVSSGGGGSGGGGSGGGASQSGLTQPRSVSGSPGQSVTISCTGTSSDVGGYNYVSWYQQHPGKAPKLMIYDVSKRPSGVPDRFSGSKSGNTASLTVSGLHAEDEADYYCSSYAGSNNFVFGTGTKVTVL
# B5: scFv A01 (scFv)
# scFv: QVQLVQSGAEVKKPGASVKVSCKASGYTFTSYYMHWVRQAPGQGLEWMGIINPSGGSTSYAQEFQGRVTMTRDTSTSTVYMELSSLRSEDTAVYYCARDGQWLQFDYWGQGTLVTVSSGGGGSGGGGSGGGASDIVMTQSPLSLPVTLGQPASISCRSSQSLLKKSDGNTYLSWYHQRPGQSPRRLIYKVSNRDSGVPDRFSGSGSDTDFTLKISRVETEDVGIYYCMQGSHWPPTFGQGTKVEIK
# B6: scFv A06 (scFv)
# scFv: B4 scFv with S30G, T35S, V54I, G166A, D187E, G201A, H216Q, F234W, T238G, V242L
# B7: scFv A12 (scFv)
# scFv: B3 scFv with Y233V
# B8: scFv B01 (scFv)
# scFv: EVQLVQPGAEVKKPGSSVKVSCKASGGTLSSYAISWVRQAPGQGLEWMGRIIPILGITNYAQKFQGRVTITADKSTSTAYMELSSLRSEDTAVYFCARDQRPASMDVWGQGTLVTVSSGGGGSGGGGSGGGASQSGLTQPASVSGSPGQSITISCTGTSSDVGGYNYVSWYQQHPGKAPKLMIYEVSNRPSGVSNRFSGSKSGNTASLTISGLQAEDEADYYCSTVTSLSTYVFGTGTKLTVL
# B9: scFv B07 (scFv)
# scFv: EVQLVQSGAEVKRPGSSVKVSCKASGYTFTSYYMHWVRQAPGQGLEWMGIINPSGGSTSYAQKFQGRVTMTRDTSTSTVYMELSSLRSEDTAVYYCAAGTYSSGWTIDYWGQGTTVTVSSGGGGSGGGGSGGGASDIVMTQSPLSLPVTLGQPASISCRSSQSLVYTDGNTYLNWFQQRPGQSPRRLIYKVSNRDSGVPDRFSGSGSGTDFTLKISRVEAEDVGIYYCMHSKQWPPTFGGGTKVEIK
# B10: scFv A02 (scFv)
# scFv: B3 scFv with T227A, S228G, Y233V
# B11: scFv B12 (scFv)
# scFv: QVQLVESGGGLVKPGGSLRLSCAASGFTFSSYSMNWVRQAPGKGLEWVSVIYSGGSTHYADSVKGRFTISRHNSKNTLYLQMNSLRAEDTAVYYCARGAGTLNAFDIWGQGTTVTVSSGGGGSGGGGSGGGASQSGLTQPPSTSGSPGQSVTISCTGTSSDVGAYSYVSWYQQHPGKAPKLLIYAVTKRPSGVPDRFSGSKSGNTASLTVSGLQDEDEADYYCSSFAGGSTLVFGGGTKLTVL
# Columns and labels:
# [1] = target: mouse GUCY2C-rCD4 fusion protein (Mus musculus (house mouse); Rattus norvegicus); experiment: ELISA (DELFIA), antigen on streptavidin plate, scFv culture solution, Eu-anti-tag Ab
# [2] = target: monkey GUCY2C-rCD4 fusion protein (Macaca fascicularis (crab-eating macaque); Rattus norvegicus); experiment: as above
# monkey GUCY2C-rCD4 fusion protein (Macaca fascicularis (crab-eating macaque); Rattus norvegicus), sequence (chain, as listed by the source limits assumed): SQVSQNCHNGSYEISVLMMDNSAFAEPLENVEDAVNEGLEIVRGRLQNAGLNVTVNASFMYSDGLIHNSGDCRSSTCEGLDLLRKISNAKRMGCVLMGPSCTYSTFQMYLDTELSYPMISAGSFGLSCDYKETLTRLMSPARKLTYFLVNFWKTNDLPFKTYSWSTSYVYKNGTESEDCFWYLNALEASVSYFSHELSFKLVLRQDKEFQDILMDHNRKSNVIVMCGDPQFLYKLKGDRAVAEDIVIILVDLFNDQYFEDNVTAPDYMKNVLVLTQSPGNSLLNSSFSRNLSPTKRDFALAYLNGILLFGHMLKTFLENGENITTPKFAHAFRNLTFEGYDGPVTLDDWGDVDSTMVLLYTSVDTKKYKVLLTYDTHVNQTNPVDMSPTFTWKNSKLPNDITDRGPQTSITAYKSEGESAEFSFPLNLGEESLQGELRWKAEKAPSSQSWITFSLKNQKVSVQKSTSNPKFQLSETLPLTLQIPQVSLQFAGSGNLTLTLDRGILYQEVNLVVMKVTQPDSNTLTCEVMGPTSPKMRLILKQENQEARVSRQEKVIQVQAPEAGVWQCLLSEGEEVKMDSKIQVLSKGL
Binding ELISA signal [1],Binding ELISA signal [2],Binder
61,–,B1
77,–,B2
66,73,B3
62,89,B4
352,–,B5
80,–,B6
53,56,B7
70,–,B8
66,–,B9
74,60,B10
48,–,B11
